Measurements published in patent US20220380455A1 (Alector, published 2022).
Several values for one entry are separate records, joined by “and”; a condition that tells them apart may be missing. Identical values can stand only once.

How the values were obtained:
MS4A6A ECL2 peptide [1] = biological target: T1, MS4A6A ECL2 peptide (human); experiment: array SPR (Carterra MX-96), antibody captured, peptide injected; both duplicates N/A
T1 construct: also called MS4A6A ECL-2 peptides
T1 peptide: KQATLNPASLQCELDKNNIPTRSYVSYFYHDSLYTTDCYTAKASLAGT
Procedure: (§1) Binding kinetic characterization of the purified antibodies to MS4A6A ECL1 and ECL2 peptides was performed by Carterra (South San Francisco, Calif.) using a proprietary array Surface Plasmon Resonance (SPR) instrument (MX-96) as follows. Antibodies were printed onto a CMD5OOD chip (Xantec #SPMX CMD500D lot #SC CMD500D0117.a Exp. 31.12.18) using the Continuous Flow Microspotter (CFM). First, the chip was activated with 100 mM MES pH 5.5, 100 μL EDC (133 mM final), 100 μL of S-NHS (33.3 mM final), for 7 minutes. A lawn of anti-mouse IgG-Fc (Jackson ImmunoResearch CAT #115-005-071 lot#130410) was injected for 15 minutes to establish a surface density of 10000-12000 RU, after which the chip surface was deactivated with 1 M ethanolamine at pH 8.5 for 10 minutes. Anti-MS4A6A antibodies in question, in the form of hybridoma supernatants diluted 2:1 with HBS-EP+buffer (Teknova CAT #H8022), were then printed as duplicates with a 20 minute and a 5 minutes print from the same sample solution. Control antibodies were diluted to 20 μ/ml for printing.
(§2) To perform kinetic analysis, the peptides in question were prepared in HBS-EP+buffer with lmg/ml BSA at final assay concentrations of 2000 nM, 400 nM, 80 nM, 16 nmM, and 3.2 nM. These were then injected on the chip for five minutes, followed by a seven-minute dissociation period at 8 uL per second in a non-regenerative kinetic series. Duplicate measurements for each anti-MS4A6A antibody were taken to ensure reproducibility.
(§3) Kₐ (association rate constant; Kₒₙ), Kd (dissociation rate constant; Koff) and KD (equilibrium constant) to MS4A6A ECL-2 peptides were calculated for each of the 23 anti-MS4A6A antibodies tested, the results of which are shown below in Table 5 (clones that bound too weakly to determine these values are denoted as N/A in Table 5).

cynomolgus (cyno) MS4A6A [2] = biological target: T2, cynomolgus (cyno) MS4A6A (cynomolgus, UniProt Q9H2W1 1-246 (human entry)); experiment: flow cytometry, hybridoma supernatant, HEK293 transfected with cyno MS4A6A over parental HEK293; Screen 1
T2 construct: Full-length protein expressed in transfected HEK293, U937 or K562 cells (flow cytometry)
T2 chain: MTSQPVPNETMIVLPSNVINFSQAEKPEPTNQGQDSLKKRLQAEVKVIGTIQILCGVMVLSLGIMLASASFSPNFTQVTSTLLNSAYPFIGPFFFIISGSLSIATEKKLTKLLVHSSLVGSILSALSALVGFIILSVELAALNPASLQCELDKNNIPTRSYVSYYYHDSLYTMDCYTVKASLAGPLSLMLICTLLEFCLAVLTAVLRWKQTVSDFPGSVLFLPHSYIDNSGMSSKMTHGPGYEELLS
Procedure: (§4) Positive clones were expanded and then rescreened for specificity against HEK293 cells overexpressing cyno MS4A6A and parental HEK293 cells. Briefly, previously prepared, cryopreserved transiently-transfected cells were labeled with LIVE/DEAD Fixable Aqua Dead Cell Stain Kit (ThermoFisher Scientific L34957) on ice for 30 minutes. After a wash with PBS, 2×10⁵ cells were aliquoted per well in 96-well round bottom plates and incubated with 50 μl of culture supernatant on ice for 30 mins. […] Following this secondary incubation, the cells were again washed twice with ice-cold FACS buffer and resuspended in a final volume of 200 μl of FACS buffer. Analysis was performed on a FACS Canto system (BD Biosciences), with sort gates drawn to exclude dead (Aqua-positive) cells. […] The screen was repeated twice, and the numbers reported here represent the ratio of mean fluorescence level in transfected cells over parental cells.

cynomolgus (cyno) MS4A6A [3] = biological target: T2, cynomolgus (cyno) MS4A6A; experiment: flow cytometry, hybridoma supernatant, HEK293 transfected with cyno MS4A6A over parental HEK293; Screen 2
Procedure: as §4

BSA-MS4A6A-ECL2 peptide = biological target: T3, BSA-MS4A6A-ECL2 peptide (human, BSA-conjugated); experiment: peptide ELISA, hybridoma supernatant
T3 construct: Synthetic peptide derived from ECL2, conjugated to BSA, coated on the ELISA plate; also called MS4A6A-ECL2 BSA conjugated peptide; BSA-MS4A6A-ELC2 peptide
T3 peptide: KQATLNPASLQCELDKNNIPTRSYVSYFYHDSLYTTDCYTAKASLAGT
Procedure: (§5) Anti-MS4A6A hybridoma supernatants were tested for binding to MS4A6A peptides derived from ECL1 (amino acid residues 68-85 of human MS4A6A of SEQ ID NO:1) and ECL2 (amino acid residues 138-185 of human MS4A6A of SEQ ID NO:1) sequences, using an enzyme-linked immunosorbent assay (ELISA). Briefly, 96-well polystyrene plates were coated with 1-10 μg/mL of synthetic free or BSA-conjugated peptides in coating buffer (0.05M carbonate buffer, pH9.6, Millipore Sigma C3041) overnight at 4° C. Coated plates were then blocked with ELISA diluent (PBS+0.5% BSA+0.05% Tween20) for 1-hour, washed 3×300 μL in PBST (PBS+0.05% Tween20, Thermo 28352), and then the antibodies were added at various dilutions (100-1000×) in ELISA diluent. After 30 mins incubation (room temperature, with shaking), the plates were washed 3×300 μl in PBST. A secondary anti-mouse HRP antibody (Jackson Immunoresearch CAT #115-035-003) was added at a 1:1000 dilution in ELISA diluent (50 μL/well) and incubated for 30 minutes at room temperature with shaking. After a final set of washes (3×300 μl in PBST), 50 μL of TMB substrate (BioFx TMBW-1000-01) was added and the reaction was then quenched after 5-10 mins with 50 μL of stop solution (BioFx BSTP-1000-01). The quenched reaction wells were detected for absorbance at […] with a BioTek Synergy Microplate Reader using GENS 2.04 software.

MS4A6A ECL1 peptide = biological target: T4, MS4A6A ECL1 peptide (human); experiment: peptide ELISA, hybridoma supernatant
T4 construct: the description elsewhere gives ECL1 as 68-84; Human and cyno ECL1 are said to be identical
T4 peptide: SASFSPNFTQVTSTLLNS
Procedure: as §5

MS4A6A ECL2 peptide [4] = biological target: T1, MS4A6A ECL2 peptide; experiment: array SPR (Carterra MX-96), antibody captured on anti-mouse IgG-Fc, ECL2 peptide injected
Procedure: as §1, §2, §3

Binder	binding result (MS4A6A ECL2 peptide [1])	ratio of APC MFI on MS4A6A+/HEK parental cells (cynomolgus (cyno) MS4A6A [2])	ratio of APC MFI on MS4A6A+/HEK parental cells (cynomolgus (cyno) MS4A6A [3])	binding result (BSA-MS4A6A-ECL2 peptide)	binding result (MS4A6A ECL1 peptide)	Kd (MS4A6A ECL2 peptide [4])	koff (MS4A6A ECL2 peptide [4])	kon (MS4A6A ECL2 peptide [4])
6A-4 (antibody, V domains shown, Mouse hybridoma antibody, tested as hybridoma supernatant (mouse IgG, detected or captured via anti-mouse IgG Fc); also called anti-MS4A6A antibody 6A-4) VH: EVQLQQSGPELVKPGASVKISCKASGYSFTGYYMHWVKQSPEDSLEWIGAINPSTGGSTYSQKFKDKATLTVDKSSSTAYMQLKSLTSEESAVYYCTRFDGYGYWGQGTLVTVSA VL: DIVMTQAAFSNPVTLGTSASISCRSSKSLLHSNGITYLYWYLQKPGQSLQLLIYQMSNLASGVPDRFSGSGSGTDFTLRISRVEAEDVGVYYCAQNLELPWTFGGGTKLEIK	no binding (tested: 2000 nM)	5.4 ratio	16.2 ratio	no binding	no binding			
6A-6 (antibody, V domains shown, Mouse hybridoma antibody, tested as hybridoma supernatant (mouse IgG, detected or captured via anti-mouse IgG Fc); also called anti-MS4A6A antibody 6A-6) VH: QIQLVQSGPELKKPGESVKISCKASGYTFANYGMNWVKLAPGKGLKWMGYINIYSGKSRYADDFKGRFAFSLETSASTAYLQINNLKNEDMATYFCARDNDYFDYWGQGTTLTVSS VL: DIVLTQSPATLSVTPGDTVSLSCRASQSISDNLHWYQQKSHESPGLLIKYASQSISGIPSRFSGRGSGTDFTLSINSVDSEDFGVYFCQQSNSWPYTFGGGTKLEIK		13.5 ratio	62.1 ratio	binds	no binding			
6A-10 (antibody, V domains shown, Mouse hybridoma antibody, tested as hybridoma supernatant (mouse IgG, detected or captured via anti-mouse IgG Fc); also called anti-MS4A6A antibody 6A-10) VH: QIQLVQSGPELKKPGETVKISCKASGYTFTNYGMNWVKQAPGKGLKWMGWINTYTGEPTYADDFKGRFAFSLETSASTAYLQINNLKNEDMATYFCARAYGNSAWFAYWGQGTLVTVSA VL: QIVLSQSPAILSASPGEKVTMTCRASSSVSYMHWYQQKPGSSPKPWIYATSNLASGVPARFSGSGSGTSYSLTISRVEAEDAATYYCQQWSSNPWTFGGGTKLEIK		18 ratio	95.2 ratio		no binding	0.19 µM	0.0013 s⁻¹	6600 M⁻¹ s⁻¹
6A-20 (antibody, V domains shown, Mouse hybridoma antibody (SJL mouse), tested as hybridoma supernatant (mouse IgG, detected or captured via anti-mouse IgG Fc); also called anti-MS4A6A antibody 6A-20) VH: EVQLQQSGPELVKPGASVKMSCKASGYTFTDYFMKWVKQSHGKSLEWIGDINPKNGDTFYNQKFKGKATLTVDKSSSTAYMQLNSLTSEDSAVYYCARPGYFDVWGAGTTVTVSS VL: DIVMTQAAPSVPVTPGESVSISCRSSKSLLHSDGNTYLYWFLQRPGQSPQLLIYRMSNLAPGVPDRFSGSGSGTAFTLRISRVEAEDVGVYYCMQHLEFPFIFGAGTKLELK	no binding (tested: 2000 nM)			no binding	no binding			
6A-7 (antibody, V domains shown, Mouse hybridoma antibody, tested as hybridoma supernatant (mouse IgG, detected or captured via anti-mouse IgG Fc); also called anti-MS4A6A antibody 6A-7) VH: QVQLQQSGAELARPGASVKMSCKASGYTFTSYAMHWVKQRPGQGLEWIGYINPSSGYTYYNQKFKDKATLTADKSSSTAYMQLSSLTSEDSAVYYCARSYYGNYEGYLDVWGAGTTVTVSS VL: NIVLTQSPASLAVSLGQRATISCRASESVESYGKSFIHWYQQKPGQPPKLLIFLASNLESGVPARFSGSGSRTDFTLTIDPVEADDAATYYCQQNNVGPYTFGGGTKLEIK	no binding (tested: 2000 nM)	3.6 ratio	8.3 ratio	no binding	no binding			
6A-23 (antibody, V domains shown, Mouse hybridoma antibody, tested as hybridoma supernatant (mouse IgG, detected or captured via anti-mouse IgG Fc); also called anti-MS4A6A antibody 6A-23) VH: EVNLEESGGDLVQPGGSMKLSCLASGFTFSDAWMDWVRQSPEKGLEWVAEIKNKANNYVTFYAASVKGRFTISRDDSKSSVYLQMNSLRLEDTGIYFCTRGSVYGNWFPYWGQGTLVTVSA VL: DIVMSQSPSSLAVSAGEKVTMTCKSSQSLFNSRTRKNYLTWYQQKPGQSPKVLIYWASTRESGVPDRFTGSGSGTDFSLTINSVQADDLAVYYCKQSYNLLTFGAGTKLELK		156 ratio	82 ratio		no binding	0.12 µM and 0.15 µM	0.00065 s⁻¹ and 0.0008 s⁻¹	5400 M⁻¹ s⁻¹ and 5500 M⁻¹ s⁻¹
6A-17 (antibody, V domains shown, Mouse hybridoma antibody, tested as hybridoma supernatant (mouse IgG, detected or captured via anti-mouse IgG Fc); also called anti-MS4A6A antibody 6A-17) VH: QVQLKESGPGLVAPSQSLSITCTISGFSLTSYGVHWVRQPPGKGLEWLVVIWSDGSTTYNSALKSRLSISKDNSKSQVFLKMNGLQTDDTAMYYCARHRGNYPYYTMDYWGQGTSVTVSS VL: DIQMTQTTSSLSASLGDRVTISCRASQDISNYLNWYQQKPDGTVKLLIYYTSVLHSGVPSRFSGSGSGTDYSLTISNLEQEDIATYFCQQGNTLPWTFGGGTKLEIK	no binding (tested: 2000 nM)	19.3 ratio	178 ratio	no binding	no binding			
6A-8 (antibody, V domains shown, Mouse hybridoma antibody, tested as hybridoma supernatant (mouse IgG, detected or captured via anti-mouse IgG Fc); also called anti-MS4A6A antibody 6A-8) VH: QVQLQQSGAELARPGTSVKLSCKASGYTFTDYYINWVKQRNGQGLEWIGEIYPRSGNAYYNEKFRGKATLTTDKSSSTAYMQLSGLTSEDSAVYFCARGDGNWYFDVWGAGTTVIVSS VL: DIVMTQSPSSLSVSAGEKVTMSCKSSQSLLNSGDQENYLVWYQQKPGQPPKLLIYGASTRESGVPDRFTGSGSGTDFTLTISSVLAEDLAVYYCQSDHSYPLTFGAGTKLELK		26.7 ratio	69.5 ratio		no binding	0.17 µM	0.001 s⁻¹	6300 M⁻¹ s⁻¹
